Laboratory results published in the supplement of paper PMC9170038.

Test system: MS2 coat protein
Experiment: apparent KD of MS2 coat protein; designed switch direction (-1 OFF switch, 1 ON switch): -1; higher = weaker reporter binding
How it was run: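 Designed RNA switches were transcribed on Illumina chips by stalled E. coli RNA polymerase and titrated with SNAP-549-labelled MS2 coat protein from 0.7 or 1.5 nM, doubling to 3 µM. Step length ran from 0.8–1.5 h at the lowest concentration to 10–20 min at the highest. The apparent KD is the median over clusters for each design, from curve-fitted normalised cluster fluorescence.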

[1] = Eterna round: R95, input ligand: microRNA oligo, concentration not stated
[2] = input ligand: microRNA oligo, concentration not stated
[3] = Eterna round: R95, input ligand: FMN 200 uM
[4] = Eterna round: R95, input ligand: none

Sequence	apparent KD of MS2 coat protein [1]	apparent KD of MS2 coat protein (input ligand: FMN 200 uM)	apparent KD of MS2 coat protein [2]	apparent KD of MS2 coat protein (input ligand: none)	apparent KD of MS2 coat protein [3]	apparent KD of MS2 coat protein [4]
CUUUUGUGAGGAUAUCAGUAGUAAAUAAAUAAAAUUACUUCUGAGAAGGCACAUGAGGAUCACCCAUGUUCCUC [salish99_ex3_r3_087] (puzzle: Exclusion 4)	35.7 nM	–	–	–	–	–
GUGUGUGAUGUAGGAUAUACGAGACAUGAGGAUCACCCAUGUGAGGGAAGGAGAAGGAGAAGAGAGUAGAAGGAUAGAGUGUGA [Default title] (Eterna round: R96, puzzle: Exclusion NG 2)	–	133 nM	144 nM	131 nM	–	–
UAUAUGUCAGGAUAUCGAUUAGUACGGGAUUCGGUACUGGUUGAGAAGGGACAUGAGGAUCACCCAUGUUUUUC [EX4 #69] (Eterna round: R97, puzzle: Exclusion 4)	–	284 nM	–	36.5 nM	–	–
GCGCAAACGCCAAAAGGCGAAACAACAUGAGGAUCACCCAUGUAGGAUAUCGAUUGCUUUGCAGUCGAGAAGGACAAAAUGCGC [JL ENG3 3.80 Mod 6] (Eterna round: R96, puzzle: Exclusion NG 3)	–	11.6 nM	10.6 nM	15.7 nM	–	–
UGAUCUAGCGGAGGAUAUACAUGAGGAUCACCCAUGUAGAUGAGUGUACCGUAGUGCACUAUUGUGUAGAAGGCCGCUAGAUCU [JL ENG2 3.63] (Eterna round: R96, puzzle: Exclusion NG 2)	–	69.9 nM	13.7 nM	19.8 nM	–	–
UAUUAGCAAGUGAGGUCCCACAUGAGGAUCACCCAUGUGCUCGUCUUAUAAGGUACUGUGACGAUAGUCACGGUACC [Mat - Sensor, turn-off var - Eli Mod - D51] (Eterna round: R97, puzzle: Sensor, turn-off variant 1)	–	45.4 nM	–	45.5 nM	–	–
UAAUAUCUGCAGGAUAUCGGUGGAGCACACGUAUGAGAAGGGCAGACAUGAGGAUCACCCAUGUAUAGGGUCCG [BotMod 3 - Jieux - Exclusion 6] (Eterna round: R97, puzzle: Exclusion 6)	–	136 nM	–	37.7 nM	–	–
UAGGUGUGAGGAUAUGGUAAAGAUAAGAUGAUGAAAGAACUCCAGAAGGCACAUGAGGAUCACCCAUGUAGAAG [Mat - Exclusion 4 - Mod of JL - D30] (puzzle: Exclusion 4)	22.8 nM	–	–	–	27.9 nM	24.7 nM
UCAUACGGUGAGGAUAUCUCCGCUAAAGUGUGUAGAGAAGGCGCUACAUGAGGAUCACCCAUGUUUGUGGGCAG [Ex-6 Malc#11] (puzzle: Exclusion 6)	421 nM	–	–	–	–	–
GCGUAGUAUGUAGGAUAUCGGUCAGUUUCUGAUCGAGAAGGACAUGAGGAUCACCCAUGUAAAACGACCGCUUUGUGGUUACGC [JL ENG1 3.58] (Eterna round: R96, puzzle: Exclusion NG 1)	–	42.7 nM	15.9 nM	19.2 nM	–	–
UAUUUAUAGCAAGGAUAUGAUUAUUAUUAUUUAUCAGAAGGUGCACAUGAGGAUCACCCAUGUUUUAUAAUUUGUAAUUUAAUU [Title] (Eterna round: R96, puzzle: Exclusion NG 1)	–	–	40.9 nM	–	–	–
GGCACACAUGAGGAUCACCCAUGUGAGGAUAUGCUGCGAUCGUCGAUAGACGAUAGCAGUAGAAGGCACAUGCC [Mat - Exclusion 1 - Eli Mod - D7] (Eterna round: R97, puzzle: Exclusion 1)	–	25.9 nM	–	19.1 nM	–	–
AGCUGUGGCCGAGGAUAUCUGAUAGUCCCAACCGAAAUAUAAUCGGACAUGAGGAUCACCCAUGUAGAGAAGGCGGUCUCAGCA [Eli eng2 - 070] (Eterna round: R96, puzzle: Exclusion NG 2)	–	214 nM	57.9 nM	73.9 nM	–	–
CUCAUUAGUCAGGAUAUCGUGUGGGUAAUUGUACGAGAAGGGACGACAUGAGGAUCACCCAUGUGGUCUUUGGG [JR_Ex6_Sub085] (Eterna round: R97, puzzle: Exclusion 6)	–	70.6 nM	–	165 nM	–	–
CCGGAUAUGCAGGAUAUCGAAUCGGAAACGAUUCGAGAAGGGUAUACAUGAGGAUCACCCAUGUGUCCUACCGG [Mat - Exclusion 6 - Eli Mod - D87] (puzzle: Exclusion 6)	19.4 nM	–	–	–	–	–
AAGUACCGUCACGAAAGUGAUGGUACAACAAGUAAAUGUACAUGAGGAUCACCCAUGUCCUCAAUUGCUCGUCUUAU [Sensor 3 - 60] (puzzle: Sensor v3, turn-off variant 2)	202 nM	–	–	–	722 nM	745 nM
UUUAAUUUUUUUUUUUUACAAGCUUUUUGCUCGUCUUAUACAUGAGGAUCACCCAUGUGAGUGGAAGGUAAAUUAUC [JMF 69] (puzzle: Sensor v3, turn-off variant 2)	18 nM	–	–	–	12.6 nM	11.8 nM

Sequence	apparent KD of MS2 coat protein [1]	apparent KD of MS2 coat protein (input ligand: FMN 200 uM)	apparent KD of MS2 coat protein [2]	apparent KD of MS2 coat protein (input ligand: none)	apparent KD of MS2 coat protein [3]	apparent KD of MS2 coat protein [4]
UACAUGAGGAUCACCCAUGUUUUGUCGUGUAUGGUAUUUAUCUAGGAUAUCAUUUUAGUUAGUUAUGAGAAGGAGAAUAUUAAU [JMF's solution 88] (Eterna round: R96, puzzle: Exclusion NG 3)	–	–	26.4 nM	–	–	–
ACAUGAGGAUCACCCAUGUGAAAGAAAUGGCUGACUUUGAGCUAGGAUAUUUGUGCAUAUCAAACAAAGAAGGAGCAUUACUGG [Deportation 99 - Jieux - Exclusion NG 3] (Eterna round: R96, puzzle: Exclusion NG 3)	–	20.4 nM	16.9 nM	20.6 nM	–	–
GAGUAGGUAGGAUAUACGAUAAUAUAGGGUAGAUAUAUAACACAUGAGGAUCACCCAUGUAGAAGGACCAGGAG [Mat - Exclusion 2 - Mod of my Tesla design - D63] (puzzle: Exclusion 2)	38.3 nM	–	–	–	115 nM	36.6 nM
CCAGCGUAUGUGAGGAUAUGCUGGUCCUUGGAUCAGCAGAAGGCACAUGAGGAUCACCCAUGUGAGAACGUUGG [JL bmx4 3.38] (puzzle: Brourd's mod of Exclusion 4)	24.6 nM	–	–	–	–	–
CUGAGCAGACGGAAAUCCAACAUGAGGAUCACCCAUGUCUCAAAAGCUUUUUGCUCGUCUUAUCUUCCUCUGCUCUC [Cecelein] (puzzle: Sensor v3, turn-off variant 1)	16.8 nM	–	–	–	12.9 nM	11.8 nM
UUGAAGUCGUCAGGAUAUAGUUUUAAUGUCAUGCGUAUGUUCUUACAUGAGGAUCACCCAUGUCGCUAGAAGGGACUAAAGAUU [JR_ExcNG2_Sub010] (Eterna round: R96, puzzle: Exclusion NG 2)	–	43.9 nM	33.4 nM	44.4 nM	–	–
UUCGUGUAAGGAUAUACGACCCAUCCCAUUGGGAUGGGCACGUAGAAGGUACAUGAGGAUCACCCAUGUGCUCC [Ceacequa] (Eterna round: R96, puzzle: Exclusion 4)	–	298 nM	34.4 nM	41.4 nM	–	–
CUAAUUCAAGGAUAUACAUGAGGAUCACCCAUGUGAGGGAGUGACAAGUUGUCGGGAUGUAGAAGGUGACCUAG [Eternabot (L2) Solution 36] (Eterna round: R97, puzzle: Exclusion 3)	–	417 nM	–	411 nM	–	–
AGUUCCUUUGUGAGGAUAUCAAUGAUAUAACUGUAUGAGAAGGCACAUGAGGAUCACCCAUGUUUGUUGCUGCA [Eternabot (L1) Solution 78] (Eterna round: R97, puzzle: Brourd's mod of Exclusion 4)	–	106 nM	–	20.1 nM	–	–
GCACGAAGUGGAGGAUAUCUGGGCGAGGAGCGCAGAGAAGGCCACAUGAGGAUCACCCAUGUGUUCCACGGAUCGCAAACGUGC [exng1 ex2] (Eterna round: R96, puzzle: Exclusion NG 1)	–	69.3 nM	14.4 nM	20.9 nM	–	–
ACGCAUUGCCUUUGGUAGUGCGUAACAUGAGGAUCACCCAUGUAGGAUAUGGUAGGCUUUGCUUACCAGAAGGACAUAAUAAUU [JL ENG3 1.01] (Eterna round: R96, puzzle: Exclusion NG 3)	–	54.1 nM	21.7 nM	26.1 nM	–	–
GUCCGACAUGAGGAUCACCCAUGUGAGGAUAUACGAUUAGCUGCUAGGUAGUUAGUAUGUAGAAGGUGCAUGAA [EX1 #74] (Eterna round: R97, puzzle: Exclusion 1)	–	30.1 nM	–	17.5 nM	–	–
AGUAUUCGAGGAUAUACGUGCCAAUGAUCCAUGAGACUCCUACAUGAGGAUCACCCAUGUAGAAGGCGAAAACC [Eternabot (L1) Solution 99] (Eterna round: R97, puzzle: Exclusion 2)	–	19.1 nM	–	15.9 nM	–	–
CUUUAGCUAGGAUAUACAUGAGGAUCACCCAUGUUAGCGGCCAAUUGGACCGCGGGUUGUAGAAGGAGCAUUAA [Atantiza] (puzzle: Exclusion 3)	29.8 nM	–	–	–	–	–
AAAAGGCAGGGAGGAUAUGCUUGCCUGGGUCGUCUUCAAACAUGAGGAUCACCCAUGUAGUCGACGCAGAAGGCCCUCAAAGCC [Mat - Exclusion NG 2 - Mod of JL - D61] (Eterna round: R96, puzzle: Exclusion NG 2)	–	65.2 nM	12.1 nM	16.5 nM	–	–
AAAAAACAUGAGGAUCACCCAUGUCAGGAUAUCCGAAAAGAAAAAUAAAAAGAAAAAGGGAGAAGGGACAAAAA [April's ex-date #3] (puzzle: Exclusion 1)	48.6 nM	–	–	–	45.6 nM	61.3 nM
CGAUGUUAUGUCAGGAUAUGCAUUGCGAAAGCGAUGCAGAAGGGACAUGAGGAUCACCCAUGUCCUAACCAUCG [Omei A 6] (puzzle: Brourd's mod of Exclusion 4)	11.6 nM	–	–	–	–	–
